Legend:
PIV1030 [1] = molecular target: T1, PIV1030 (PIV1); experiment: BLI, 53C stress;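 also: binding of thermally stressed PIV1 F mutant supernatant to mAb on AHC biosensors for 5 min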
T1 construct: A466L, S473A
Description: (§1) All measurements were conducted at 30° C. temperature in 96-well black plates (Corning, Corning, NY) with a final volume of 240 μL per well at a constant agitation rate of 1000 RPM.
(§2) Conformation integrity of PIV1 F protein mutants were evaluated by a thermal stress experiment. Crude cell culture supernatants were normalized based on the results of the titer quantitation and then incubated for 1 hour at room temperature and two higher temperatures. For the initial testing of PIV1 mutants, the two temperatures were 50° C. and 53° C. […] Anti-Human IgG Fc Capture (AHC) biosensors were first equilibrated in PB for before being dipped into more PB to establish the initial baseline. […] The mAb-bound biosensors were then dipped into the thermal stresses cell culture supernatants for 5 minutes.

PIV1024 [2] = molecular target: T2, PIV1024 (PIV1); experiment: BLI, 53C stress;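 also: binding of thermally stressed PIV1 F mutant supernatant to mAb on AHC biosensors for 5 min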
T2 construct: A466V
Description: as §1, §2

PIV1028 [3] = molecular target: T3, PIV1028 (PIV1); experiment: BLI, 53C stress;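 also: binding of thermally stressed PIV1 F mutant supernatant to mAb on AHC biosensors for 5 min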
T3 construct: A480L
Description: as §1, §2

PIV1031 [4] = molecular target: T4, PIV1031 (PIV1); experiment: BLI, 53C stress;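 also: binding of thermally stressed PIV1 F mutant supernatant to mAb on AHC biosensors for 5 min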
T4 construct: A466L, S473L
Description: as §1, §2

PIV1039 [5] = molecular target: T5, PIV1039 (PIV1); experiment: BLI, 53C stress
T5 construct: A128P
Description: as §1, §2

PIV1036 [6] = molecular target: T6, PIV1036 (PIV1); experiment: BLI, 53C stress
T6 construct: G134A
Description: as §1, §2

PIV1026 [7] = molecular target: T7, PIV1026 (PIV1); experiment: BLI, 53C stress
T7 construct: S473V
Description: as §1, §2

PIV1014 = molecular target: T8, PIV1014 (PIV1); experiment: BLI, 53C stress
T8 construct: Q92C-G134C
Description: as §1, §2

PIV1023 = molecular target: T9, PIV1023 (PIV1); experiment: BLI, 53C stress
T9 construct: A466L
Description: as §1, §2

PIV1033 [8] = molecular target: T10, PIV1033 (PIV1); experiment: BLI, 53C stress
T10 construct: T198A
Description: as §1, §2

PIV1027 = molecular target: T11, PIV1027 (PIV1); experiment: BLI, 53C stress
T11 construct: S473L
Description: as §1, §2

PIV1030 [9] = molecular target: T1, PIV1030; experiment: BLI, 50C stress
Description: as §1, §2

PIV1024 [10] = molecular target: T2, PIV1024; experiment: BLI, 50C stress
Description: as §1, §2

PIV1028 [11] = molecular target: T3, PIV1028; experiment: BLI, 50C stress
Description: as §1, §2

PIV1031 [12] = molecular target: T4, PIV1031; experiment: BLI, 50C stress
Description: as §1, §2

PIV1039 [13] = molecular target: T5, PIV1039; experiment: BLI, 50C stress
Description: as §1, §2

PIV1036 [14] = molecular target: T6, PIV1036; experiment: BLI, 50C stress
Description: as §1, §2

PIV1026 [15] = molecular target: T7, PIV1026; experiment: BLI, 50C stress
Description: as §1, §2

PIV1033 [16] = molecular target: T10, PIV1033; experiment: BLI, 50C stress
Description: as §1, §2

hMPV103 = molecular target: T12, hMPV103 (hMPV B, UniProt Q6WB98 19-102); experiment: BLI, 56C stress
T12 construct: E146C-T160C
Description: as §1
(§3) Conformation integrity of hMPV B F protein mutants were evaluated by a thermal stress experiment. Crude cell culture supernatants were normalized based on the results of the titer quantitation and then incubated for 1 hour at room temperature and two higher temperatures. For the testing of hMPV B single mutants, the two temperatures were 53° C. and 56° C. After the incubation, the protein mutants were probed with prefusion specific monoclonal antibody hMPV-2 by OCTET HTX. Anti-Human IgG Fc Capture (AHC) biosensors were first equilibrated in PB before being dipped into more PB for to establish the initial baseline. Biosensors were incubated with hMPV-2 before being equilibrated in PB to establish the experimental baseline. The mAb-bound biosensors were then dipped into the thermal stresses cell culture supernatants for 5 minutes.

hMPV108 = molecular target: T13, hMPV108 (hMPV B, UniProt Q6WB98 19-102); experiment: BLI, 56C stress
T13 construct: T365I
Description: as §1, §3

hMPV107 = molecular target: T14, hMPV107 (hMPV B, UniProt Q6WB98 19-102); experiment: BLI, 56C stress
T14 construct: S149T
Description: as §1, §3

hMPV100 = molecular target: T15, hMPV100 (hMPV B, UniProt Q6WB98 19-102); experiment: BLI, 56C stress
T15 construct: T411C-Q434C
Description: as §1, §3

hMPV102 = molecular target: T16, hMPV102 (hMPV B, UniProt Q6WB98 19-102); experiment: BLI, 56C stress
T16 construct: L141C-A161C
Description: as §1, §3

hMPV106 = molecular target: T17, hMPV106 (hMPV B, UniProt Q6WB98 19-102); experiment: BLI, 56C stress
T17 construct: T49I
Description: as §1, §3

hMPV B F WT Control = hMPV B F WT Control (hMPV B, UniProt Q6WB98 19-102); experiment: BLI, 56C stress
Description: as §1, §3

hMPV104 = molecular target: T18, hMPV104 (hMPV B, UniProt Q6WB98 19-102); experiment: BLI, 56C stress
T18 construct: A459P
Description: as §1, §3

hMPV105 = molecular target: T19, hMPV105 (hMPV B, UniProt Q6WB98 19-102); experiment: BLI, 56C stress
T19 construct: G239A
Description: as §1, §3

hMPV101 = molecular target: T20, hMPV101 (hMPV B, UniProt Q6WB98 19-102); experiment: BLI, 56C stress
T20 construct: A140C-S149C
Description: as §1, §3

hMPV052 = molecular target: T21, hMPV052 (hMPV A, UniProt Q6WB98 19-102); experiment: BLI, no stress
T21 construct: L66P
Description: (§4) The OCTET HTX (Sartorius, Gottingen, Germany) instrument was used to evaluate the expression and conformational integrity for each mutant. All measurements were conducted at 30° C. temperature in 96-well black plates (Corning, Corning, NY) with a final volume of 240 μL per well at a constant agitation rate of 1000 RPM.
(§5) Conformation integrity of hMPV A F protein mutants were evaluated by thermal stress experiments. Crude cell culture supernatants were normalized based on the results of the titer quantitation and then incubated for 1 hour at room temperature and two higher temperatures. […] Anti-Human IgG Fc Capture (AHC) biosensors were first equilibrated in PB before being dipped into more PB to establish the initial baseline. […] The mAb-bound biosensors were then dipped into the thermal stressed cell culture supernatants for 5 minutes. The kinetics analysis was done by OCTET data analysis software (version 12.0, Sartorius) based on curve fitting of the entire associate step.

hMPV043 = molecular target: T22, hMPV043 (hMPV A, UniProt Q6WB98 19-102); experiment: BLI, no stress
T22 construct: G366C-D454C
Description: as §4, §5

hMPV046 = molecular target: T23, hMPV046 (hMPV A, UniProt Q6WB98 19-102); experiment: BLI, no stress
T23 construct: A140C-S149C
Description: as §4, §5

hMPV075 = molecular target: T24, hMPV075 (hMPV A, UniProt Q6WB98 19-102); experiment: BLI, no stress
T24 construct: L473F
Description: as §4, §5

hMPV049 = molecular target: T25, hMPV049 (hMPV A, UniProt Q6WB98 19-102); experiment: BLI, no stress
T25 construct: E146C-T160C
Description: as §4, §5

hMPV A F WT Control = hMPV A F WT Control (hMPV A, UniProt Q6WB98 19-102); experiment: BLI, no stress
Description: as §4, §5

hMPV077 = molecular target: T26, hMPV077 (hMPV A, UniProt Q6WB98 19-102); experiment: BLI, no stress
T26 construct: Q476C, S477C
Description: as §4, §5

hMPV068 = molecular target: T27, hMPV068 (hMPV A, UniProt Q6WB98 19-102); experiment: BLI, no stress
T27 construct: A159V
Description: as §4, §5

hMPV060 = molecular target: T28, hMPV060 (hMPV A, UniProt Q6WB98 19-102); experiment: BLI, no stress
T28 construct: A459P
Description: as §4, §5

hMPV062 = molecular target: T29, hMPV062 (hMPV A, UniProt Q6WB98 19-102); experiment: BLI, no stress
T29 construct: G121A
Description: as §4, §5

hMPV058 = molecular target: T30, hMPV058 (hMPV A, UniProt Q6WB98 19-102); experiment: BLI, no stress
T30 construct: L187P
Description: as §4, §5

hMPV071 = molecular target: T31, hMPV071 (hMPV A, UniProt Q6WB98 19-102); experiment: BLI, no stress
T31 construct: T365I
Description: as §4, §5

hMPV055 = molecular target: T32, hMPV055 (hMPV A, UniProt Q6WB98 19-102); experiment: BLI, no stress
T32 construct: N145P
Description: as §4, §5

B1: PIV1-8 mAb (antibody, V domains shown)
VH: QVQLVQSGAEVKKPGSSVKVSCEASGGTFSNYVISWVRQAPGQGLEWMGGIIPVFATAKYAQKFQGRVTIIADQSTNTAYLELSSLRSDDTAVYFCASVDSGGTWWDAFAIWGQGTMVTVSS
VL: QAVVTQPRSVSGSPGQAVTISCTGTSSDVGGYNYVSWYQHHPGKAPKLIIYDVTKRPSGVPDRFSGSKSGNTASLTISGLQTEYEADYYCCSYAGSYTLVFGGGTKLTVLG
notes: human IgG1; also called hPIV1-8 mAb; hPIV1-8
Response Shift (PIV1030 [1]): -0.046 nm
Response Shift (PIV1024 [2]): -0.016 nm
Response Shift (PIV1028 [3]): -0.052 nm
Response Shift (PIV1031 [4]): 0.489 nm
Response Shift (PIV1039 [5]): -0.055 nm
Response Shift (PIV1036 [6]): -0.042 nm
Response Shift (PIV1026 [7]): -0.039 nm
Response Shift (PIV1014): 0.009 nm
Response Shift (PIV1023): -0.001 nm
Response Shift (PIV1033 [8]): -0.073 nm
Response Shift (PIV1027): -0.02 nm
Response Shift (PIV1030 [9]): -0.031 nm
Response Shift (PIV1024 [10]): 0.022 nm
Response Shift (PIV1028 [11]): -0.018 nm
Response Shift (PIV1031 [12]): 0.72 nm
Response Shift (PIV1039 [13]): -0.039 nm
Response Shift (PIV1036 [14]): 0.007 nm
Response Shift (PIV1026 [15]): -0.022 nm
Response Shift (PIV1033 [16]): -0.027 nm

B2: hMPV-2 mAb (antibody, V domains shown)
VH: QVQLQQSGAEVKKPGASVKVSCKASGYTFTSYGISWVRQAPGQGLEWMGWISGYNGNTNYAQTFQGTFTMTTDTSTSTAYMELRRLRSGDTAVYYCARDRYYASGSYNGMDVWGQGTTVTVSS
VL: QSALTQPPSASGAPGQRVTVSCSGSSSNVGSSSVYWYQQLPGTAPKLLIYRNNQRPSGVPDRFSGSKSGTSASLAISGLRSEDEADYYCAAWDDSLSGWVFGGGTKLTVLG
notes: human IgG1
Response Shift (hMPV103): 0.041 nm
Response Shift (hMPV108): 0.04 nm
Response Shift (hMPV107): 0.519 nm
Response Shift (hMPV100): 0.779 nm
Response Shift (hMPV102): 0.007 nm
Response Shift (hMPV106): 0.397 nm
Response Shift (hMPV B F WT Control): 0.005 nm
Response Shift (hMPV104): -0.11 nm
Response Shift (hMPV105): 0.064 nm
Response Shift (hMPV101): 0.649 nm
Response Shift (hMPV052): 0.739 nm
Response Shift (hMPV043): 0.636 nm
Response Shift (hMPV046): 0.573 nm
Response Shift (hMPV075): 0.802 nm
Response Shift (hMPV049): 0.7 nm
Response Shift (hMPV A F WT Control): 0.782 nm
Response Shift (hMPV077): 0.751 nm
Response Shift (hMPV068): 0.783 nm
Response Shift (hMPV060): 0.769 nm
Response Shift (hMPV062): 0.774 nm
Response Shift (hMPV058): 0.709 nm
Response Shift (hMPV071): 0.76 nm
Response Shift (hMPV055): 0.627 nm
